Assay results as given in IntAct's records for PubMed 24793651.

B1: Autophagy-related protein 13 (Saccharomyces cerevisiae), Q06628 (parent)
chain: MVAEEDIEKQVLQLIDSFFLKTTLLICSTESSRYQSSTENIFLFDDTWFEDHSELVSELPEIISKWSHYDGRKELPPLVVETYLDLRQLNSSHLVRLKDHEGHLWNVCKGTKKQEIVMERWLIELDNSSPTFKSYSEDETDVNELSKQLVLLFRYLLTLIQLLPTTELYQLLIKSYNGPQNEGSSNPITSTGPLVSIRTCVLDGSKPILSKGRIGLSKPIINTYSNALNESNLPAHLDQKKITPVWTKFGLLRVSVSYRRDWKFEINNTNDELFSARHASVSHNSQGPQNQPEQEGQSDQDIGKRQPQFQQQQQPQQQQQQQQQQQRQHQVQTQQQRQIPDRRSLSLSPCTRANSFEPQSWQKKVYPISRPVQPFKVGSIGSQSASRNPSNSSFFNQPPVHRPSMSSNYGPQMNIEGTSVGSTSKYSSSFGNIRRHSSVKTTENAEKVSKAVKSPLQPQESQEDLMDFVKLLEEKPDLTIKKTSGNNPPNINISDSLIRYQNLKPSNDLLSEDLSVSLSMDPNHTYHRGRSDSHSPLPSISPSMHYGSLNSRMSQGANASHLIARGGGNSSTSALNSRRNSLDKSSNKQGMSGLPPIFGGESTSYHHDNKIQKYNQLGVEEDDDDENDRLLNQMGNSATKFKSSISPRSIDSISSSFIKSRIPIRQPYHYSQPTTAPFQAQAKFHKPANKLIDNGNRSNSNNNNHNGNDAVGVMHNDEDDQDDDLVFFMSDMNLSKEG
partner: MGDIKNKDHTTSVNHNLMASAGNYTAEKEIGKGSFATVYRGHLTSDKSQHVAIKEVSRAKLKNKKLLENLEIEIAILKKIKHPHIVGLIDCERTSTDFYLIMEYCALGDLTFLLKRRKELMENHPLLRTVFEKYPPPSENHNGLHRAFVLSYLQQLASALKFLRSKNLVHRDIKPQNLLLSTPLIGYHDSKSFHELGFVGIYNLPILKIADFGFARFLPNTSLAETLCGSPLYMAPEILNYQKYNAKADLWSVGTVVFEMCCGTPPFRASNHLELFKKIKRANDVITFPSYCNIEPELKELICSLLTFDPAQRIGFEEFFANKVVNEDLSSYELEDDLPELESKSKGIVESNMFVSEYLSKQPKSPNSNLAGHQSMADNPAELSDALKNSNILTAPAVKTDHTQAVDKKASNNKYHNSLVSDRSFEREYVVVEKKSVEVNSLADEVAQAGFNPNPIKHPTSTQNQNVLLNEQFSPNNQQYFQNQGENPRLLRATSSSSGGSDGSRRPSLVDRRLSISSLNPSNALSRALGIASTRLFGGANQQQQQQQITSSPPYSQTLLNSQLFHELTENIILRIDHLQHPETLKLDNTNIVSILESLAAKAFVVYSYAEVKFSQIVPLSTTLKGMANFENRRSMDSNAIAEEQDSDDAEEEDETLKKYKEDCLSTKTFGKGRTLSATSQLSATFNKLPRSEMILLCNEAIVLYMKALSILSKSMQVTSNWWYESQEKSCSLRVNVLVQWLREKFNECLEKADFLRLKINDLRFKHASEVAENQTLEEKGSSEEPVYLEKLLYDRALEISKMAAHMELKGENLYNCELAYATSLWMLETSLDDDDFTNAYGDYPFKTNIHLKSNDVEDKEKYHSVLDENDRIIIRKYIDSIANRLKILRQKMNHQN
B2: Autophagy-related protein 17 (Saccharomyces cerevisiae), Q06410 (parent)
chain: MNEADVTKFVNNARKTLTDAQLLCSSANLRIVDIKKKLSSWQLSISKLNFLIVGLRQQGKFLYTILKEGIGTKLIQKQWNQAVLVVLVDEMKYWQYEITSKVQRLDGIVNELSISEKDDTDPSKLGDYISRDNVNLLNDKLKEVPVIERQIENIKLQYENMVRKVNKELIDTKLTDVTQKFQSKFGIDNLMETNVAEQFSRELTDLEKDLAEIMNSLTQHFDKTLLLQDKKIDNDEREELFKVVQGDDKELYNIFKTLHEVIDDVDKTILNLGQFLQAKIKEKTELHSEVSEIINDFNRNLEYLLIFKDISNLIDSFKNSCTQDIQTTKELCEFYDNFEESYGNLVLEAKRRKDVANRMKTILKDCEKQLQNLDAQDQEERQNFIAENGTYLPETIWPGKIDDFSSLYTLNYNVKNP
partner: B1 chain
B3: Autophagy-related protein 13 (Saccharomyces cerevisiae), Q06628 (parent)
chain: B1 chain
partner: B2 chain

Variants of: B1
Details: with atg1_yeast ATG1, P53104

Row | Variant | effect of a mutation on the interaction
1 | F468A;L472A | disrupting interaction strength

Variants of: B1
Details: with atg1_yeast ATG1, P53104
Remark: another data set of the same source

Row | Variant | effect of a mutation on the interaction
2 | F468A | decreasing interaction strength

Variants of: B1
Details: with atg1_yeast ATG1, P53104
Remark: another data set of the same source

Row | Variant | effect of a mutation on the interaction
3 | F468A | disrupting interaction strength
4 | L472A | disrupting interaction strength

Variants of: B2
Details: with atg13_yeast ATG13, Q06628

Row | Variant | effect of a mutation on the interaction
5 | I213A;S216A | decreasing interaction strength
6 | L240A;V243A | decreasing interaction strength
7 | D247A | disrupting interaction strength
8 | D247A;E250A | disrupting interaction strength

Variants of: B3
Details: with atg17_yeast ATG17, Q06410

Row | Variant | effect of a mutation on the interaction
9 | S429D | disrupting interaction strength

Variants of: B3
Details: with atg17_yeast ATG17, Q06410
Remark: another data set of the same source

Row | Variant | effect of a mutation on the interaction
10 | S428A;S429A | disrupting interaction strength
11 | F430A;I433A | disrupting interaction strength
12 | R434A;R435A | disrupting interaction strength
